Measurements reported in paper PMC11154707, “Polymer-based antibody mimetics (iBodies) target human PD-L1 and function as a potent immune checkpoint blocker” (The Journal of Biological Chemistry, 2024).

How the values were obtained:
[1] = biological target: T1, human PD-L1, membrane-bound, on hPD-L1-transfected CHO cells (human, UniProt Q9NZQ7 19-290); assay: flow cytometry on cells; dilution series on hPD-L1-transfected and wild-type CHO cells in PBS, 30 min at 4 °C; ATTO488 fluorescence; EC50 from MFI by 4-parameter logistic fit; settings: one partner purified
T1 construct: The catalogue suffix -CH may mean a C-terminal His tag (surmise); also called CHO PD-L1; source: CHO cells, stably transfected (pCMV3-full-length human PD-L1, hygromycin selection), on cells

[2] = biological target: T2, recombinant human PD-L1 extracellular domain (residues 19–239), His-tagged (human, UniProt Q9NZQ7 19-239); assay: ELISA; 100 ng/well rhPD-L1 coated directly on the plate (TBS, 1 h RT), casein block; dilution series of biotinylated binder in TBS with 0.1% Tween-20, 1 h RT; neutravidin-HRP, chemiluminescence; EC50 by 4-parameter logistic fit; settings: both partners purified
T2 construct: programmed death-ligand 1 (PD-L1/CD274/B7-H1), human, extracellular domain residues 19-239, subcloned from pCMV3-full-length human PD-L1 into pTT28; probably removed on secretion (surmise); also called rhPD-L1; recombinant extracellular hPD-L1; source: HEK293-6E, transiently transfected, secreted, purified (Ni-NTA Agarose, dialysis); not shown: His8, C-terminal, kept

[3] = biological target: T2, recombinant human PD-L1 extracellular …; assay: ELISA; 100 ng/well rhPD-L1 coated directly on the plate, casein block; dilution series of ATTO488-WL12 in TBS with 0.1% Tween-20, 1 h RT; read by ATTO488 fluorescence intensity; EC50 by 4-parameter logistic fit; settings: both partners purified

T2 sequence (Q9NZQ7 19-239): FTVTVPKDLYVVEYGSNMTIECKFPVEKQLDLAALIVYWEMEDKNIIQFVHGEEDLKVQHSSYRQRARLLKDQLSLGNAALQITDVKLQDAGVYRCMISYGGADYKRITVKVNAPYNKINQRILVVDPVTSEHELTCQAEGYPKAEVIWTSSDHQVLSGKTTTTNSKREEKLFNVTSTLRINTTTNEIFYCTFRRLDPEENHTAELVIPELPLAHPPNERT
T1 sequence (Q9NZQ7 19-290): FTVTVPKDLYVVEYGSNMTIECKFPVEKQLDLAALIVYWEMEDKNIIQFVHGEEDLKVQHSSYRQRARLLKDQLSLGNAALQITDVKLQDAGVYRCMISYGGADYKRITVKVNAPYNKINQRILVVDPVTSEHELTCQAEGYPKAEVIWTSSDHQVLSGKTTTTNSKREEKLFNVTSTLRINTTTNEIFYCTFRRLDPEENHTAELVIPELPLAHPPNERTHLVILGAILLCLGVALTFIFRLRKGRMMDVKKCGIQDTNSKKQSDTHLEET

| EC50 [1] [nM] | EC50 [2] [nM] | EC50 [3] [nM] | Binder |
| --- | --- | --- | --- |
| 6.6 | 0.29 | – | YANPHLPWSWXXXCG (other, ClAc on the N-terminus (peptide cyclised, macrocyclic); MeAla at 2; Hyp at 7; Trp(Me) at 10; MeNle at 11 and 12; Orn at 13; C-terminal amide; amino group of the peptide bound to the HPMA copolymer) [iBody 1 (HPMA copolymer carrying WL12, ATTO488 and biotin)] |
| 270 | – | 5.3 | YANPHLPWSWXXXCG (ClAc on the N-terminus (peptide cyclised, macrocyclic); MeAla at 2; Hyp at 7; Trp(Me) at 10; MeNle at 11 and 12; Orn at 13; C-terminal amide; ATTO488 fluorophore (site not told in the text shown)) [ATTO488-WL12] |
